# Legend:
# [1] = target: HLA-B*15:01; experiment: IEDB peptide-MHC binding, purified MHC/competitive/radioactivity; filed as Kd, often an IC50 or EC50 that approximates it; ≥ and ≤ were set here for values at or beyond the usual limits of such assays
# [2] = target: HLA-A*02:01; experiment: as above
# [3] = target: HLA-A*23:01; experiment: as above
# [4] = target: HLA-A*32:01; experiment: as above
# [5] = target: HLA-A*30:01; experiment: as above
# [6] = target: HLA-A*24:02; experiment: IEDB peptide-MHC binding, purified MHC/competitive/fluorescence; ≥ and ≤ were set here for values at or beyond the usual limits of such assays
# [7] = target: HLA-B*07:02; experiment: IEDB peptide-MHC binding, purified MHC/competitive/radioactivity; filed as Kd, often an IC50 or EC50 that approximates it; ≥ and ≤ were set here for values at or beyond the usual limits of such assays
# [8] = target: HLA-B*51:01; experiment: as above; conditions: source organism: Dengue virus 2 Jamaica/1409/1983
# [9] = target: HLA-B*08:01; experiment: as above; conditions: source organism: Dengue virus 1 Nauru/West Pac/1974
# [10] = target: HLA-A*02:02; experiment: as above
# [11] = target: HLA-A*68:02; experiment: as above
# [12] = target: HLA-A*02:06; experiment: as above
# [13] = target: HLA-A*02:03; experiment: as above
# [14] = target: HLA-A*26:01; experiment: as above
# [15] = target: HLA-A*30:02; experiment: as above
# [16] = target: HLA-A*01:01; experiment: as above
# [17] = target: HLA-A*29:02; experiment: as above
# [18] = target: HLA-B*53:01; experiment: as above; conditions: source organism: Dengue virus 4 Philippines/H241/1956
# [19] = target: HLA-B*35:01; experiment: as above; conditions: source organism: Dengue virus 4 Philippines/H241/1956
# [20] = target: HLA-A*02:01; experiment: IEDB peptide-MHC binding, purified MHC/competitive/fluorescence; ≥ and ≤ were set here for values at or beyond the usual limits of such assays; conditions: source organism: Sudan ebolavirus
# [21] = target: HLA-A*24:02; experiment: IEDB peptide-MHC binding, purified MHC/competitive/radioactivity; filed as Kd, often an IC50 or EC50 that approximates it; ≥ and ≤ were set here for values at or beyond the usual limits of such assays
# [22] = source organism: Vaccinia virus WR
# [23] = source organism: Dengue virus 1 Nauru/West Pac/1974
# [24] = source organism: Lassa virus Josiah
# [25] = source organism: Dengue virus 3 Martinique/1243/1999
# [26] = source organism: Mammarenavirus brazilense
# [27] = source organism: Dengue virus 1 Brazil/97-11/1997
# [28] = source organism: Dengue virus 3 Sri Lanka/1266/2000
# [29] = source organism: SARS coronavirus Tor2
# [30] = source organism: Lymphocytic choriomeningitis virus (strain Armstrong)
sequence,measurement,setting,value
MLRVYNNTA,Kd,[1]; [22],188 nM
MMCYFLTATP,Kd,[2]; [22],18 nM
MMLKLLTDF,Kd,[1]; [23],11.5 nM
same,Kd,[3]; [23],357 nM
same,Kd,[4]; [23],56.7 nM
MSIVCIVAA,Kd,[1]; [22],3070 nM
MSKSHAAYI,Kd,[5]; [22],0.227 nM
QARFSGLLI,IC50,[6]; source organism: Zaire ebolavirus,16700 nM
QAVNNLVEL,Kd,[2]; [24],4570 nM
QPATLRKYCI,Kd,[7]; source organism: Dengue virus 2 Jamaica/1409/1983,660 nM
same,Kd,[8],≥ 26100 nM
RARNRVSTV,Kd,[7]; [23],2.62 nM
same,Kd,[9],9.01 nM
same,Kd,[5]; [23],23 nM
RLLGTFTWT,Kd,[10]; [24],323 nM
same,Kd,[11]; [24],≥ 5000 nM
same,Kd,[2]; [24],33.8 nM
same,Kd,[12]; [24],137 nM
same,Kd,[13]; [24],104 nM
SLFIESSICL,Kd,[10]; [22],99.2 nM
same,Kd,[2]; [22],2 nM
same,Kd,[12]; [22],982 nM
same,Kd,[13]; [22],293 nM
SMRKTDWLPM,Kd,[1]; [25],134 nM
TADDITMGY,Kd,[14]; [26],4700 nM
same,Kd,[15]; [26],9930 nM
same,Kd,[16]; [26],18.8 nM
same,Kd,[17]; [26],11300 nM
same,Kd,[4]; [26],≥ 77800 nM
same,Kd,[5]; [26],≥ 78100 nM
TARGARRMA,Kd,[5]; [27],6300 nM
TFKTAHAKK,Kd,[5]; [27],99.4 nM
TPEGIIPTLF,Kd,[7]; source organism: Dengue virus 4 Philippines/H241/1956,920 nM
same,Kd,[18],38.1 nM
same,Kd,[19],93.5 nM
TPKAKRGTAQ,Kd,[7]; source organism: Dengue virus 1 Singapore/S275/1990,1410 nM
TPTGTVMDII,Kd,[7]; [25],219 nM
TTQALQLFL,IC50,[6]; source organism: Sudan ebolavirus,6610 nM
same,IC50,[20],10600 nM
TVAAMGVPPL,Kd,[14]; [28],12200 nM
same,Kd,[11]; [28],19.8 nM
same,Kd,[5]; [28],3210 nM
VFSAVGNICY,Kd,[14]; [29],1280 nM
same,Kd,[3]; [29],15400 nM
same,Kd,[21]; [29],7130 nM
same,Kd,[15]; [29],13.8 nM
same,Kd,[16]; [29],60.5 nM
same,Kd,[17]; [29],28.3 nM
VKIPTHRHI,Kd,[14]; [30],≥ 77900 nM
same,Kd,[3]; [30],≥ 77700 nM
same,Kd,[21]; [30],≥ 77500 nM
same,Kd,[15]; [30],≥ 76900 nM
same,Kd,[16]; [30],≥ 78100 nM
same,Kd,[17]; [30],15400 nM
VLTGGVTLFF,Kd,[1]; [27],194 nM
same,Kd,[21]; [27],1610 nM
VMPVHTLSI,Kd,[14]; [29],≥ 20700 nM
same,Kd,[3]; [29],109 nM
same,Kd,[21]; [29],47.2 nM
same,Kd,[15]; [29],4570 nM
same,Kd,[16]; [29],≥ 78100 nM
same,Kd,[17]; [29],141 nM
VMTKWCAPF,Kd,[1]; [22],1.86 nM
VSIINNAVY,Kd,[14]; [29],15300 nM
same,Kd,[3]; [29],≥ 44300 nM
same,Kd,[21]; [29],≥ 58700 nM
same,Kd,[15]; [29],9.17 nM
same,Kd,[16]; [29],883 nM
same,Kd,[17]; [29],1070 nM
VYKVYYGNAL,Kd,[14]; [29],11700 nM
same,Kd,[3]; [29],746 nM
same,Kd,[21]; [29],203 nM
same,Kd,[15]; [29],5980 nM
same,Kd,[16]; [29],≥ 37200 nM
same,Kd,[17]; [29],7770 nM
YEDQDALFAY,Kd,[14]; [29],≥ 64800 nM
same,Kd,[3]; [29],≥ 70000 nM
same,Kd,[21]; [29],≥ 70300 nM
same,Kd,[15]; [29],2030 nM
same,Kd,[16]; [29],≥ 92600 nM
same,Kd,[17]; [29],530 nM
YLALYNKYKY,Kd,[14]; [29],19200 nM
same,Kd,[3]; [29],11600 nM
same,Kd,[21]; [29],18600 nM
same,Kd,[15]; [29],34.5 nM
same,Kd,[16]; [29],244 nM
same,Kd,[17]; [29],43.2 nM
